According to article PMC8251270 (Journal of Leukocyte Biology, 2021):

Tests used:
[1] = molecular target: recombinant receptor‐binding motif (RBM) of SARS‐CoV‐2 spike (S) protein, residue 437–508 (SARS-CoV-2, UniProt P0DTC2); assay: SPR; conditions: both partners purified
[2] = molecular target: tetranectin (TN) of murine lung tissue (Mus musculus (lung tissue lysate), UniProt P43025); assay: Western blot; conditions: one partner purified
Sequence of tetranectin (TN) of murine lung tissue (P43025 22-202): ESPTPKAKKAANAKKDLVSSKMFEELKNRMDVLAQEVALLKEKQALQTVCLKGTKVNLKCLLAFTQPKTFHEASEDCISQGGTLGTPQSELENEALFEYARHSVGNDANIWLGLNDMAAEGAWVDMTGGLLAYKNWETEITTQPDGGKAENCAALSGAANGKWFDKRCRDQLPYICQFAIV

B1: mAb8 (antibody, V domains shown)
VH: DVKLVESGGGLVKLGGSLKLSCAASGFTFSTDYMSWVRQSPEKRLELVAAINSNGGTTYYPDTVKGRFIISRDNAKNTLYLQMSSLRSEDTALYYCARQVKNGLDYWGQGTSVTVSS
VL: DIQMTQTTSSLSASLGDRVTISCRASQDISNYLNWYQQKPDGTVKLLIYKTSRLHSGVPSRFRGSGSGTDYSLTISNLEEEDVATYFCQQGNTLPPTFGGGTKLEIK
**Q.** For B1, which Kd [1] is on record?
**A.** The Kd was 17.4 nM.

**Q.** Does B1 bind [2]?
**A.** Result: binds

B2: mAb2 (antibody, V domains shown)
VH: DVKLVESGGGLVNLGGSLKLSCAASGFTFSSDYMSWVRQIPEKRLELVAAINSNGGTTYYPDTVKGRFTISRDNAKNTLYLQMSSLKSEDTALYYCARQGKNGMDYWGQGTSVTVSS
VL: DIQMTQTTSSLSASLGDRVTISCRASQDISNHLNWYQQRPDGTVKLLIYYTSRLHSGVPSRFSGSGSGTDYSFTITNLDQEDIATYFCQQGKTLPPTFGGGTKLEIK
**Q.** Which results are given for B2?
**A.** Kd [1]: 62.8 nM; binding result [2]: binds
